In general, Kd refers to the constant that tells how readily two partners part at equilibrium.

Experiment [1] concerns the target T1, PHD finger of human UHRF1 (residues 299–366) (human, UniProt Q96T88 299-366).
T1 chain: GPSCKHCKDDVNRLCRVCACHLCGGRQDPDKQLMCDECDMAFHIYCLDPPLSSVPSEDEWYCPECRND
Put plainly: ITC. On the technique in general: In ITC the heat of successive injections is recorded.

The target of experiment [2] is T2, human DNMT1 RFTS domain, residues 351–600 (human, UniProt P26358 351-600).
T2 chain: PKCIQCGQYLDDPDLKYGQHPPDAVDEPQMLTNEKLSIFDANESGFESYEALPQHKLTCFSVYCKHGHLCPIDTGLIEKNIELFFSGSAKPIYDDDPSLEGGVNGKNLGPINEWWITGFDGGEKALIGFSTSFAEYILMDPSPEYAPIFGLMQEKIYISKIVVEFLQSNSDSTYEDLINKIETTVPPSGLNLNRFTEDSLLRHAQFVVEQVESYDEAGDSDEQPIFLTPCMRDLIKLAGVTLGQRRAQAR
The experiment in a line: ITC.

Take VRTAADSVPG [hPAF15_(2-11)-K5A peptide]: the affinity in experiment [1], expressed as Kd, was 5.7 µM.

B1: PAF15_(2-30) unmodified (peptide)
chain: VRTKADSVPGTYRKVVAARAPRKVLGSST
modifications: unmodified (no ubiquitin); taken as wild-type K15/K24, since the text describes K15C/K24C only for preparing the ubiquitylated analogs
The molecule B1 showed an equilibrium dissociation constant (Kd) in experiment [2] of 6 µM. This counts as single-digit micromolar.

Values taken from paper PMC7060239 (2020).
